From paper PMC9700037 (2022)

Target: T1, biotin-MBP-NLRP1 M1184V (Avi-MBP-tev-NLRP1 M1184V) (human, UniProt Q9C000 1-1473, M1184V, biotin (on the Avi tag, BirA co-expressed))
T1 sequence: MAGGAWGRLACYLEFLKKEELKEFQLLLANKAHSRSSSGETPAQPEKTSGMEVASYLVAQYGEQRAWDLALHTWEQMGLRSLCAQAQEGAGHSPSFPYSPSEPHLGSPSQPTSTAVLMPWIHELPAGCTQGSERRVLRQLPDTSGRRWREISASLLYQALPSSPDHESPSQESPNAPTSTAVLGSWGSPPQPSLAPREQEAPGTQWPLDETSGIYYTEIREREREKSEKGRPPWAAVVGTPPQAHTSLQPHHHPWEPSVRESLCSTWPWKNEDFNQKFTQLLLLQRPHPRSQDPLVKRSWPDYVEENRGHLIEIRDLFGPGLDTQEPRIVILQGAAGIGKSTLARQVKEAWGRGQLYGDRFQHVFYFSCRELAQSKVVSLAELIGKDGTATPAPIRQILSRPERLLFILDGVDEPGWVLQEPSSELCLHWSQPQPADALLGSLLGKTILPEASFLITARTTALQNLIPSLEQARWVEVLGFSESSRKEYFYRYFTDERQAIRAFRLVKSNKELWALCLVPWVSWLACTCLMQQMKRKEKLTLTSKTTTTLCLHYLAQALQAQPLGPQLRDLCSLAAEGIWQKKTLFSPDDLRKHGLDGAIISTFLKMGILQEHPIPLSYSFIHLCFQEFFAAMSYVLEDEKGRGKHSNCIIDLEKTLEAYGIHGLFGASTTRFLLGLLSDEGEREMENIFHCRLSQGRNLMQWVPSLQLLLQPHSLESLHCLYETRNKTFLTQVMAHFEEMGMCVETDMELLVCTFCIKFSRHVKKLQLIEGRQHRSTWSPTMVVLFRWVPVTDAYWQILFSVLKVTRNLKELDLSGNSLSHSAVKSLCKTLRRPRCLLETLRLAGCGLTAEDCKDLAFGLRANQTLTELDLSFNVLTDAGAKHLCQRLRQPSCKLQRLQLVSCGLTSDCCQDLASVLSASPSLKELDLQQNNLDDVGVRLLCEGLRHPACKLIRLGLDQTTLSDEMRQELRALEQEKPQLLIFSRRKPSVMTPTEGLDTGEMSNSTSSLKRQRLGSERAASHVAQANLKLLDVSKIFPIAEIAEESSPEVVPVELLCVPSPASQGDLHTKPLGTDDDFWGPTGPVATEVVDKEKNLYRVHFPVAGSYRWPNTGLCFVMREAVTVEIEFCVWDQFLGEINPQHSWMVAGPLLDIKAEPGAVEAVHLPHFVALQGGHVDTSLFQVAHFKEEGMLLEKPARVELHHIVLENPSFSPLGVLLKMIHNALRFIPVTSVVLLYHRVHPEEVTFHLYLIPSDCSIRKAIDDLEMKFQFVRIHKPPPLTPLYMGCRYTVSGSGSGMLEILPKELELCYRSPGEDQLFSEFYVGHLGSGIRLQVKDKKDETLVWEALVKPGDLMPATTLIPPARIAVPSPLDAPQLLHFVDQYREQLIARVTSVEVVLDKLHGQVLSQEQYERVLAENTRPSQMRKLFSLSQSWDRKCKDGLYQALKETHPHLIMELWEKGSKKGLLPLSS
Test: SPR; NLRP1 void (high MW) fraction

B1: His6-tev-DPP9 (enzyme)
chain: MATTGTPTADRGDAAATDDPAARFQVQKHSWDGLRSIIHGSRKYSGLIVNKAPHDFQFVQKTDESGPHSHRLYYLGMPYGSRENSLLYSEIPKKVRKEALLLLSWKQMLDHFQATPHHGVYSREEELLRERKRLGVFGITSYDFHSESGLFLFQASNSLFHCRDGGKNGFMVSPMKPLEIKTQCSGPRMDPKICPADPAFFSFINNSDLWVANIETGEERRLTFCHQGLSNVLDDPKSAGVATFVIQEEFDRFTGYWWCPTASWEGSEGLKTLRILYEEVDESEVEVIHVPSPALEERKTDSYRYPRTGSKNPKIALKLAEFQTDSQGKIVSTQEKELVQPFSSLFPKVEYIARAGWTRDGKYAWAMFLDRPQQWLQLVLLPPALFIPSTENEEQRLASARAVPRNVQPYVVYEEVTNVWINVHDIFYPFPQSEGEDELCFLRANECKTGFCHLYKVTAVLKSQGYDWSEPFSPGEDEFKCPIKEEIALTSGEWEVLARHGSKIWVNEETKLVYFQGTKDTPLEHHLYVVSYEAAGEIVRLTTPGFSHSCSMSQNFDMFVSHYSSVSTPPCVHVYKLSGPDDDPLHKQPRFWASMMEAASCPPDYVPPEIFHFHTRSDVRLYGMIYKPHALQPGKKHPTVLFVYGGPQVQLVNNSFKGIKYLRLNTLASLGYAVVVIDGRGSCQRGLRFEGALKNQMGQVEIEDQVEGLQFVAEKYGFIDLSRVAIHGWSYGGFLSLMGLIHKPQVFKVAIAGAPVTVWMAYDTGYTERYMDVPENNQHGYEAGSVALHVEKLPNEPNRLLILHGFLDENVHFFHTNFLVSQLIRAGKPYQLQIYPNERHSIRCPESGEHYEVTLLHFLQEYL
Kd: 113 nM
